We go through one substance from patent publication US20100159475.

For data set [1], the system named is T1, Fluoresceinyl-DLDVPIPGRFDRRVpSVAAE (phosphorylated, fluorescein-tagged RII peptide).
T1 sequence: DLDVPIPGRFDRRVSVAAE

For Recombinant calcineurin, in the data set with autoinhibitory peptide, the “dephosphorylation by 0.2 ng calcineurin (fluorimetric calcineurin assay)” value is on record as “Dephosphorylation by 0.2 ng calcineurin was significantly reduced (ANOVA) by each of these conditions”. In addition, in data set [1], the “amount of dephosphorylated peptide in the unbound fraction after titanium oxide (mass spectrometry)” value is on record as 30-fold increase in the amount of dephosphorylated peptide in the unbound fraction with the addition of recombinant calcineurin, the “dephosphorylation of the peptide (fluorimetric calcineurin assay)” value was “Calcineurin in normal buffer resulted in dephosphorylation of the peptide in a dose-dependent manner” and the “relative amount of dephosphorylated to phosphorylated peptide (mass spectrometry)” value was “recombinant calcineurin stimulated a dose-responsive increase in the relative amount of dephosphorylated to phosphorylated peptide”.
